Assay: soluble fraction after stress (log2 fold change); higher = more stays soluble; pooled small domains, quantitative proteomics
Conditions: stress: pH 4
Procedure, shortened: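 High-throughput quantitative proteomics was run on pooled custom libraries of small protein domains following pH 4 stress. Fold changes are on a log2 scale; higher values mean more of a domain remained soluble. The fold change in soluble amount is taken as a measure of aggregation propensity.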

## HMKTLKHYFASIAHEFGREEAELMLLSVFKTPFEQRLMLFMKDPALTEAQVQQLDNLVRQRKQGVPLPYIL
  soluble fraction (log2): -0.287

## HMKTLPADPTVKNFSYTVVDGEIYYRENSIMTQIELSDNAKGRVAGMVELRQIVNELIDQQLND
  soluble fraction (log2): -1.52

## HMKTMEQSYIGRKIILDENVEDSALIKFEGIYWTFKSVSGPLKKGTEVEIIGIEGNKILIKNK
  soluble fraction (log2): 0.181

## HMKTPIEFGSVYNDPVRYVIGMSIKSAESINQAIYDMMKIFGDENNMNKFDSLPDEQAVLDMVNSF
  soluble fraction (log2): -0.208

## HMKTRIQDLRKELGVTQSELADAVDVTRQTIISLEGGRYKASLVLAHKLAQFFHVTIEELFIFD
  soluble fraction (log2): -0.918

## HMKTRNISGNHEAVWQAVRSRTQAGHPTTRAVIMDDLKAQGLNTQKFSRWLKKLVDDGSVYMDGDTIIMGK
  soluble fraction (log2): -0.12

## HMKTRTVVLKSAGGNKIAVIKIIKEITGLGLVEAKAVADNGGNIKENIPAEEAEAIKTQLTEAGAEVEL
  soluble fraction (log2): -0.242

## HMKTRYPNVYQDEKGKFFYQIFIGTDTNGRKKLKKGRRDALGHPFSSAYQASKEAKRVQALYANVS
  soluble fraction (log2): -0.0451

## HMKTSTGSAMYLTLDLAEKYAGQAFTLVHKKADGTFEYLYATADVDGKVKFGPVYELSPFMLVKGQL
  soluble fraction (log2): -0.674

## HMKTSVGSKMMVMANNLSIRKSANLLSEKLADLSKGDMVEYISSTNGWNKVRYNGYVGYVSSYYLKDTGEV
  soluble fraction (log2): 0.375

## HMKTTKDSVFEYIQKELMTNEEYKQGINTNVIAQHFGLQRSNISTILNELVKEDRLEKTNTRPVLYFLPQ
  soluble fraction (log2): 0.184

## HMKTTKRERARAKLIQLLENEDRPAKEIYAGLGDIGVGSRTVEKVKKELQVTTYRSGGSWYWSLPKP
  soluble fraction (log2): -0.147

## HMKTVKPSQIPYSEFLKLVETDKINDVSMVGRNIIGHLDDGSKFKTYTPPNDPTLIEKLSSHNIVINAAPE
  soluble fraction (log2): 0.134

## HMKTVLDSLLRILDSKELDIVVLRHIVGLTLTEIAKEKDMKKGTVFWMYNRAVKKLRLESERMGL
  soluble fraction (log2): -0.977

## HMKTVPNVEGEKDGTAQSAIESAGLKVGKVTYQYDDNTSKGLVISQSVKGGEKVKPNTAIDLVVSNGPK
  soluble fraction (log2): 0.22

## HMKTYSEAQLKIALESLIENGKKQGYLTFQEINEILPDGIINTQDLKVIISILKETGIVVAKEKPEINIDV
  soluble fraction (log2): 0.273

## HMKVEFTPAYLKKFKANKNAWKFYEAQTNTYKKQSAWYVISAKQEETRLRRLDLLIYDSENGIHIKPLRR
  soluble fraction (log2): 0.211

## HMKVFTEDEMLEKIKEYLSTNSYINRRVMETQFGLRQNIALKWLKHFTEIGVLRKEGERNSPIYFLNN
  soluble fraction (log2): 0.154

## HMKVKIFNGMKLVTNSTGLTVDGKPAALDESNADAKTYSQGLYVFIVYQSGKIAVMQDGKFLGYA
  soluble fraction (log2): 0.301

## HMKVLNVLESEIVRLFKQGQQKDNIRDNIYKTHGQHYNNKKSFNVVFGRKWNSLLEQGFLES
  soluble fraction (log2): 0.241

## HMKVRDTQYIIEAAISKNVIRKSKNIYYYGTDIIGRSLEDAIASLNDKKNQDIKMTILQEIES
  soluble fraction (log2): 0.0993

## HMKVSKNKIVKGMGFHHVALKAVDFDASFKFYTEGLGMKFYTSWGEGNGKIAMLDLGDGGILELFA
  soluble fraction (log2): 0.22

## HMKVTGITDDILQRLKQQKGYLMLSDKSSPDEIYAAFGVSKKVFKQAIGTLFKQRQIIIEEQGIRLAN
  soluble fraction (log2): 0.201

## HMKVTQDIIFKRNGEEIKSKVLEITPDLIIYIDYSRADNIAREINISEVNMIIYKNGTSEIFSRPEE
  soluble fraction (log2): -1.15

## HMKVTTGIDGLIGEEGVALSDFSGKGKIMVHGEIWNAEFSGEVKKGEVLLVEKANGMTLITRKKN
  soluble fraction (log2): -0.401

## HMKYKWLAGQLRRELLENGGKKGYKLPTELELARRYQLSRQTVRRALQLLEEEGLILRRQGSGAYATGKPP
  soluble fraction (log2): 0.0629

## HMKYLREEDYLPIGSIIRLDDRNFRVDHVNFMFKSVSLQDMDLTNSGQPIFRSESLPHIRELYEQQQNELV
  soluble fraction (log2): -1.09

## HMKYYIYQGLGDSGELTKIAEVTDVKTYTATGLEANTKYRFAVSAYNGLRESSKSNIITVTT
  soluble fraction (log2): -0.325

## HMLADIGGRIADLRREVGLTQGELAEKADISVVHLSNIELGKKTPGLSTLIRIAEALDVATDWILQA
  soluble fraction (log2): -1.13

## HMLAFDKDDSGAVAEIILVLGRYWMDFSHKKYPAAEGVALRHKGLSHIFTVLRPYLSTPASELIGERLRR
  soluble fraction (log2): 0.22

— the domain aggregation screens of Martell et al. (2025)
